Source: PMC3544828

How the values were obtained:
[1] = target: T1, CcpA (Staphylococcus aureus COL) (UniProt Q5HF38); assay: EMSA; details: Room temperature, 15 min, 250 fmol each of specific and non-specific probe; protein stock in 10 mM Tris-HCl pH 7.5, 100 mM NaCl, 10% glycerol (binding buffer …)
T1 sequence: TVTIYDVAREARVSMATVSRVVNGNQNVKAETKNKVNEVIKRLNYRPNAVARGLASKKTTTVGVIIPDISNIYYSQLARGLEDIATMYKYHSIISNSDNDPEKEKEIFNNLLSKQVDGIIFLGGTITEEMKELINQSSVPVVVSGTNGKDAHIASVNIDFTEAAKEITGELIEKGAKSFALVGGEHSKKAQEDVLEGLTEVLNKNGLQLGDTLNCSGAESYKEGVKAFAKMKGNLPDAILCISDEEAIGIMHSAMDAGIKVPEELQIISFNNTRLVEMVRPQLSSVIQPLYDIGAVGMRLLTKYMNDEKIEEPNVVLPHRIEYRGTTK

[2] = target: T2, Rex (Staphylococcus aureus COL) (UniProt Q5HEF5); assay: EMSA; details: Room temperature, 15 min, 250 fmol each of specific and non-specific probe; protein stock in 10 mM Tris-HCl pH 7.5, 100 mM NaCl, 10% glycerol (binding buffer …)
T2 sequence: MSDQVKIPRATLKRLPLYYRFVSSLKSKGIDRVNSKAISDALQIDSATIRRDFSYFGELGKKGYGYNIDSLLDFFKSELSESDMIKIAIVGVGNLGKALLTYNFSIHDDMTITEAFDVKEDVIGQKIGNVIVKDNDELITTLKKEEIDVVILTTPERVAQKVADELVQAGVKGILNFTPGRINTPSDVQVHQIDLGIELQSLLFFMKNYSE

Row | Sequence | binding [1] | binding [2]
1 | CGCATAACTTAAAAGGTCATGTGTCATCCGCTTTTAAGTTTGTGATTTATTTCACATATAAAATGTAACATGCATTAAGTACTGGGTCAATATTAAATTGTGATTTATTTCACATTTTATTTTAATTTTTACACCTTTTTAATTTGTATACGATTACATCTTAGATGTCTTTAGTCTTCGTACTTCGCCAGTGATTATTTACAC (double strand) [Pldh1 promoter fragment] | no binding | binds
2 | CTCCCCTTTTCATCATTTATAACTATTATACATGAAACATTATCCAAATAATTACATTAGTTTTCAAAGCAGATACTTTTCCACCAAAAAAGATGAAATAATCACTAAGTTTCATTAAATTTGTCTATTTTGAAAACCCTTACATTTATAATGACATAATTACTTAAATGATTACAAGCAAAAGAATTGATAATTTTACACTTAATC (double strand) [ProcD2 promoter fragment] | binds | 
